The supplement of paper PMC9170038

Tested on: MS2 coat protein
Assay: apparent KD of MS2 coat protein; designed switch direction (-1 OFF switch, 1 ON switch): -1; higher = weaker reporter binding
Method in brief: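 SNAP-549-labelled MS2 coat protein was titrated, doubling from 0.7 or 1.5 nM to 3 µM, over designed RNA switches transcribed on Illumina chips by stalled E. coli RNA polymerase. Runs were done without input, with 200 uM small-molecule ligand, or with an oligonucleotide input. Apparent KD is the per-design median over clusters of curve-fitted normalised fluorescence.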

[1] = input ligand: microRNA oligo, concentration not stated
[2] = Eterna round: R95, input ligand: microRNA oligo, concentration not stated
[3] = Eterna round: R95, input ligand: FMN 200 uM
[4] = Eterna round: R95, input ligand: none

| Sequence | apparent KD of MS2 coat protein (input ligand: FMN 200 uM) [nM] | apparent KD of MS2 coat protein [1] [nM] | apparent KD of MS2 coat protein (input ligand: none) [nM] | apparent KD of MS2 coat protein [2] [nM] | apparent KD of MS2 coat protein [3] [nM] | apparent KD of MS2 coat protein [4] [nM] |
| --- | --- | --- | --- | --- | --- | --- |
| UGAGUGCUGCGAGGAUAUACAUGAGGAUCACCCAUGUUUUCGUGUGAGGCAAAGCCUCACACGAUGUAGAAGGCGCAGUACUCU [Mat - Exclusion NG 2 - Mod of JL - D35] (Eterna round: R96, puzzle: Exclusion NG 2) | 13.2 | 10.7 | 16.1 | – | – | – |
| UGAUCAGACCGAGGAUAUACAGGGAGGACGCACGUGAGUGCGUCCACUACAUGAGGAUCACCCAUGUAGAAGGCGGUCUGAUCU [JL ENG2 1.99] (Eterna round: R96, puzzle: Exclusion NG 2) | 319 | 16.9 | 19.9 | – | – | – |
| UGAUCAGACCGAGGAUAUAUAUGUAGGACGCACGUGAGUGCGUCCAGUACAUGAGGAUCACCCAUGUAGAAGGCGGUCUGAUCU [JL ENG2 1.96] (Eterna round: R96, puzzle: Exclusion NG 2) | 20.3 | 9.99 | 13.6 | – | – | – |
| UGAUCUAGCGGAGGAUAUACAUGAGGAUCACCCAUGUAAGUCGCCUUACCGUAGUGAAGCAUCAUGUAGAAGGCCGCUAGAUCU [MOD4 ENG2 3.62 by JL (unstable but ms2 present in dot)] (Eterna round: R96, puzzle: Exclusion NG 2) | 153 | 19.9 | 57.3 | – | – | – |
| UGAUGUAGAGGAUAUUGUAUGGCUCACAUGAGGAUCACCCAUGUAGGAUCACCUAGAGCCCGAGAAGGCUAGAGGU [Eternabot (L2) Solution 4] (Eterna round: R97, puzzle: Exclusion 5) | 47 | – | 45.8 | – | – | – |
| UGCAUGCUAGGAUAUACGAAACAUUAGGGUUCUUCGUAUGAACAUGAGGAUCACCCAUGUAGAAGGAGCGUGCU [Mod9 of JL-ex2-2.15 mat747 mod] (puzzle: Exclusion 2) | – | – | – | 31.1 | – | – |
| UGCAUGCUAGGAUAUACGGGACAUUAGGGUUCGUCGUGUGGACAUGAGGAUCACCCAUGUAGAAGGAGCGUGCU [Mod3 of JL-ex2-2.15 mat747 mod] (puzzle: Exclusion 2) | – | – | – | 78.2 | – | – |
| UGCCAAGCAGGAUAUGCCCGGAAUAACAUGAGGAUCACCCAUGUGACCGAUUGAUGUUCUGCAGAAGGGCAUGGAA [Mat - Exclusion 5 - Eli Mod - D2] (Eterna round: R97, puzzle: Exclusion 5) | 17.2 | – | 35.7 | – | – | – |
| UGCGAGUAAGGAUAUUCGCGACCGCCCACAAGGGCAGUCGAGAAGAAGGUACUUGAGGAUCACCCAAGUCCUAA [Quondius] (Eterna round: R97, puzzle: Exclusion 4) | 89.8 | – | 20.8 | – | – | – |
| UGCGGGCUUUUGAGACCUCACAUGAGGAUCACCCAUGUGCUCGUCUUAUGGGCCGGCCGGCCGUUGGCCGGCCGGCC [-44, -68.1 kcal, A 12%] (Eterna round: R97, puzzle: Sensor, turn-off variant 1) | 70.2 | – | 67.8 | – | – | – |
| UGCUACGGAGGAUAUACAUGAGGAUCACCCAUGUGUGAGAUUAGGCCGAGAGGCCAAUGUAGAAGGCCGUAGCU [jl-ex3-4.21 jl mod] (Eterna round: R97, puzzle: Exclusion 3) | 339 | – | 282 | – | – | – |
| UGGAAGUGAGGAUAUCCAAUAUAUGACAUGAGGAUCACCCAUGUUUCCACUCGUACCUCCGGAGAAGGCACAAGGU [Ex5 #56] (Eterna round: R97, puzzle: Exclusion 5) | 56.5 | – | 57.3 | – | – | – |
| UGGACAUGAGGAUCACCCAUGUAAUACACACCUCAGCCACGAGAGGAUAUGCCCGGAGGACCGGCGCAGAAGGCUCCCAAGAGA [Eternabot solution 10] (Eterna round: R96, puzzle: Exclusion NG 3) | 83.8 | 29.5 | 48.1 | – | – | – |
| UGGCUGCUCAGGGAGUGUGACAUGAGGAUCACCCAUGUGGUAGUAAGGAACAAGCUUUUUGCACGUACUUAUGGGUC [JR_SV3TOV1_Sub010] (puzzle: Sensor v3, turn-off variant 1) | – | – | – | 204 | 268 | 375 |
| UGGCUGCUCAGGGAGUGUGACAUGAGGAUCACCCAUGUGGUGGUAGGGAACAAGCUUUUUGCACGUACUUAUGAGUC [JR_SV3TOV1_Sub009] (puzzle: Sensor v3, turn-off variant 1) | – | – | – | 107 | 840 | 388 |
| UGGGUUCCAAGUGAGUCAGACAUGAGGAUCACCCAUGUAUAGCAAGCCUUAGCCGUUCGAGCAAAUGGUCUCGUCAG [Eternabot (Original) Solution 36] (Eterna round: R97, puzzle: Sensor, turn-off variant 1) | 384 | – | 1040 | – | – | – |
| UGGUAACAUGAGGAUCACCCAUGUCAGGAUAUCAGUAAGAAGAGAGGAGAGUAGAAGAUGAGAAGGGACUAUAU [Excluse me! 9 - Jieux - Exclusion 1] (puzzle: Exclusion 1) | – | – | – | 29.9 | 26.4 | 37.4 |
| UGGUCACAUGAGGAUCACCCAUGUCAGGAUAUCGUCACUGGAGCCUCGGCUCCAGUGACGAGAAGGGACAUAAU [E1/6-A2] (Eterna round: R97, puzzle: Exclusion 1) | 267 | – | 254 | – | – | – |
| UGUAGAGUGGUAGGAUAUCCGGCUGUUUCAGUCGGAGAAGGACCACAGUCACUGGGUCCUUAUAUGGGUGACCAUGUAUCUACU [pwkr exNG1 F6.7] (Eterna round: R96, puzzle: Exclusion NG 1) | 558 | 305 | 395 | – | – | – |
| UGUCAGAUGGUAGGAUAUCCUUAUCGCGUGUCCCUUUCCUAACAUGAGGAUCACCCAUGUCGGUGGGAGAAGGGCCGUAUGGUG [salish99_ExNG02_R04_038] (Eterna round: R96, puzzle: Exclusion NG 2) | 11.5 | 11.2 | 13.4 | – | – | – |
| UGUGCGUAUGUGAGGAUAUGCUGGUCCUUGGCUCGGCAGAAGGCACAUGAGGAUCACCCAUGUGGUGUCGUACG [salish99_Bmod_ex4_064] (puzzle: Brourd's mod of Exclusion 4) | – | – | – | 52.1 | – | – |
| UGUGGGUCAGGAUAUUCUAUUUAUUACAUGAGGAUCACCCAUGUGAAUGUACAAGGGUGUGAAGAAGGGACUUGUG [LRO-Excl5-02-mod A17d by Omei] (Eterna round: R97, puzzle: Exclusion 5) | 793 | – | 2360 | – | – | – |
| UGUUGUUACGCAGGAUAUGAGGAUCACCCAUAUAAGGAUAUCGAAAGAGAAGUUCUGAGGAUCACCCAGAAGGGCGGGUUAACA [pwkr exNG2 2xF5 2xFMN.31] (Eterna round: R96, puzzle: Exclusion NG 2) | 193 | 59 | 71.1 | – | – | – |
| UGUUGUUACGUAGGAUAUCCACCAACAGGUGGAAGGAUAUGUACGCAGAAGGUUCGCCAACAGGCGGAGAAGGACGUGUUAACA [pwkr exNG2 2xF7 2xFMN.28] (Eterna round: R96, puzzle: Exclusion NG 2) | 675 | 1110 | 385 | – | – | – |
